Reference: the supplement of paper PMC9112550, “Optimization of the antimicrobial peptide Bac7 by deep mutational scanning” (BMC Biology, 2022)

Test system: Escherichia coli TOP10
Assay: shrunken log2 fold change of peptide-encoding DNA abundance (4.5 h post-induction vs induction); higher = less antimicrobial activity (less host growth inhibition)
Settings: time post-induction: 4.5 h; library: site-saturation at positions 5, 18, 19, 20
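Also: peptides expressed intracellularly from a pBAD plasmid library in pooled LB shake-flask culture, induced with 0.3% L-arabinose, DNA abundance read by NGS, three biological replicates, DESeq2 with apeglm shrinkage.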

| Sequence | shrunken log2 fold change |
| --- | --- |
| RRIRIRPPRLPRPRPRPNYDPRP | -0.638 |
| RRIRMRPPRLPRPRPRPHRDPRP | 0.169 |
| RRIRHRPPRLPRPRPRPEFEPRP | 0.0692 |
| RRIRWRPPRLPRPRPRPFNSPRP | -0.207 |
| RRIRNRPPRLPRPRPRPDPLPRP | -0.0328 |
| RRIRQRPPRLPRPRPRPQPTPRP | 0.163 |
| RRIRERPPRLPRPRPRPDAPPRP | 0.0716 |
| RRIRNRPPRLPRPRPRPDYWPRP | -0.21 |
| RRIRFRPPRLPRPRPRPTESPRP | -0.154 |
| RRIRLRPPRLPRPRPRPHFWPRP | 0.144 |
| RRIRCRPPRLPRPRPRPEQRPRP | 0.23 |
| RRIRLRPPRLPRPRPRPTQEPRP | 0.0081 |
| RRIRYRPPRLPRPRPRPSKHPRP | -0.786 |
| RRIRARPPRLPRPRPRPYVGPRP | 0.0297 |
| RRIRFRPPRLPRPRPRPHCSPRP | 0.0308 |
| RRIRTRPPRLPRPRPRPLRWPRP | 0.856 |
| RRIRFRPPRLPRPRPRPPSHPRP | 0.123 |
| RRIRYRPPRLPRPRPRPSDVPRP | -0.199 |
| RRIRQRPPRLPRPRPRPGKLPRP | -0.0396 |
| RRIRGRPPRLPRPRPRPFDPPRP | 0.14 |
| RRIRERPPRLPRPRPRPASLPRP | 0.0301 |
| RRIRHRPPRLPRPRPRPTRAPRP | 0.348 |
| RRIRWRPPRLPRPRPRPTRTPRP | 0.83 |
| RRIRKRPPRLPRPRPRPVLTPRP | 0.342 |
| RRIRERPPRLPRPRPRPMPHPRP | -0.083 |

| Sequence | shrunken log2 fold change |
| --- | --- |
| RRIRVRPPRLPRPRPRPINCPRP | -0.12 |
| RRIRRRPPRLPRPRPRPWMTPRP | 0.0417 |
| RRIRFRPPRLPRPRPRPHRGPRP | 0.0928 |
| RRIRERPPRLPRPRPRPAAHPRP | -0.128 |
| RRIRARPPRLPRPRPRPPYMPRP | -0.467 |
| RRIRGRPPRLPRPRPRPCYWPRP | 0.553 |
| RRIRKRPPRLPRPRPRPLACPRP | -0.0149 |
| RRIRVRPPRLPRPRPRPPHFPRP | 0.696 |
| RRIRKRPPRLPRPRPRPINSPRP | -0.395 |
| RRIRPRPPRLPRPRPRPWNHPRP | -0.485 |
| RRIRDRPPRLPRPRPRPRVYPRP | 0.102 |
| RRIRFRPPRLPRPRPRPCGHPRP | -0.129 |
| RRIRMRPPRLPRPRPRPDNIPRP | -0.184 |
| RRIRYRPPRLPRPRPRPYKCPRP | -0.175 |
| RRIRDRPPRLPRPRPRPPKIPRP | -0.0144 |
| RRIRRRPPRLPRPRPRPEACPRP | 0.463 |
| RRIRKRPPRLPRPRPRPAQQPRP | 0.344 |
| RRIRHRPPRLPRPRPRPLMIPRP | -0.498 |
| RRIRNRPPRLPRPRPRPNEAPRP | -0.00931 |
| RRIRSRPPRLPRPRPRPPTLPRP | 0.0631 |
| RRIRTRPPRLPRPRPRPCHAPRP | -0.0567 |
| RRIRCRPPRLPRPRPRPISPPRP | 0.153 |
| RRIRMRPPRLPRPRPRPTMWPRP | 0.274 |
| RRIRVRPPRLPRPRPRPWMQPRP | -0.106 |
| RRIRHRPPRLPRPRPRPQPTPRP | -0.18 |

| Sequence | shrunken log2 fold change |
| --- | --- |
| RRIRKRPPRLPRPRPRPQHFPRP | 0.0698 |
| RRIRTRPPRLPRPRPRPAWHPRP | 0.282 |
| RRIRTRPPRLPRPRPRPWDPPRP | 0.102 |
| RRIRYRPPRLPRPRPRPWFRPRP | -0.567 |
| RRIRARPPRLPRPRPRPAAHPRP | 0.478 |
| RRIRNRPPRLPRPRPRPFPWPRP | -0.084 |
| RRIRVRPPRLPRPRPRPVMRPRP | 0.269 |
| RRIRARPPRLPRPRPRPVHQPRP | 0.346 |
| RRIRKRPPRLPRPRPRPPQEPRP | 0.0788 |
| RRIRTRPPRLPRPRPRPEFPPRP | 0.0504 |
| RRIRTRPPRLPRPRPRPIPSPRP | -0.236 |
| RRIRFRPPRLPRPRPRPKLHPRP | -0.0553 |
| RRIRWRPPRLPRPRPRPFRYPRP | -0.501 |
| RRIRARPPRLPRPRPRPIWGPRP | 0.302 |
| RRIRGRPPRLPRPRPRPFTLPRP | -0.109 |
| RRIRLRPPRLPRPRPRPSRGPRP | 0.0578 |
| RRIRYRPPRLPRPRPRPYEMPRP | -0.104 |
| RRIRNRPPRLPRPRPRPCWEPRP | -0.0598 |
| RRIRCRPPRLPRPRPRPCCSPRP | -0.321 |
| RRIRPRPPRLPRPRPRPERRPRP | 0.158 |
| RRIRSRPPRLPRPRPRPCFFPRP | -0.248 |
| RRIRVRPPRLPRPRPRPSTYPRP | -0.288 |
| RRIRARPPRLPRPRPRPWEQPRP | 0.248 |
| RRIRWRPPRLPRPRPRPTNIPRP | -0.509 |
| RRIRFRPPRLPRPRPRPQAHPRP | -0.454 |

| Sequence | shrunken log2 fold change |
| --- | --- |
| RRIRHRPPRLPRPRPRPQACPRP | -0.208 |
| RRIRQRPPRLPRPRPRPPCRPRP | -0.0419 |
| RRIRWRPPRLPRPRPRPWNWPRP | 0.173 |
| RRIRQRPPRLPRPRPRPYDQPRP | 0.0352 |
| RRIRWRPPRLPRPRPRPVEVPRP | -0.0825 |
| RRIRVRPPRLPRPRPRPMGGPRP | 0.062 |
| RRIRQRPPRLPRPRPRPGIDPRP | 0.0179 |
| RRIRLRPPRLPRPRPRPNNWPRP | -0.275 |
| RRIRSRPPRLPRPRPRPMEQPRP | -0.00992 |
| RRIRPRPPRLPRPRPRPQECPRP | 0.0456 |
| RRIRRRPPRLPRPRPRPNRTPRP | -0.0707 |
| RRIRGRPPRLPRPRPRPTSPPRP | 0.491 |
| RRIRERPPRLPRPRPRPDMAPRP | -0.00146 |
| RRIRRRPPRLPRPRPRPWPPPRP | 0.514 |
| RRIRCRPPRLPRPRPRPPKVPRP | -0.138 |
| RRIRLRPPRLPRPRPRPVPQPRP | 0.238 |
| RRIRDRPPRLPRPRPRPMNNPRP | -0.424 |
| RRIRVRPPRLPRPRPRPCALPRP | -0.115 |
| RRIRGRPPRLPRPRPRPFIEPRP | 0.364 |
| RRIRTRPPRLPRPRPRPFDRPRP | 0.0237 |
| RRIRKRPPRLPRPRPRPDPMPRP | 0.86 |
| RRIRVRPPRLPRPRPRPAPKPRP | 0.438 |
| RRIRSRPPRLPRPRPRPSTWPRP | -0.301 |
| RRIRDRPPRLPRPRPRPTLLPRP | 0.758 |
| RRIRTRPPRLPRPRPRPTVDPRP | -0.126 |

| Sequence | shrunken log2 fold change |
| --- | --- |
| RRIRWRPPRLPRPRPRPFCHPRP | -0.0562 |
| RRIRPRPPRLPRPRPRPGWNPRP | -0.055 |
| RRIRCRPPRLPRPRPRPWGQPRP | -0.00973 |
| RRIRSRPPRLPRPRPRPEDTPRP | -0.00541 |
| RRIRRRPPRLPRPRPRPFEAPRP | 1.04 |
| RRIRKRPPRLPRPRPRPPEWPRP | 1.19 |
| RRIRHRPPRLPRPRPRPDCPPRP | 0.0615 |
| RRIRLRPPRLPRPRPRPRWKPRP | 0.191 |
| RRIRWRPPRLPRPRPRPRETPRP | 0.936 |
| RRIRGRPPRLPRPRPRPYDGPRP | -0.387 |
| RRIRKRPPRLPRPRPRPKYFPRP | -0.098 |
| RRIRMRPPRLPRPRPRPRFAPRP | 0.728 |
| RRIRSRPPRLPRPRPRPYWMPRP | -0.648 |
| RRIRHRPPRLPRPRPRPPGQPRP | 0.0303 |
| RRIRPRPPRLPRPRPRPCRRPRP | 0.117 |
| RRIRNRPPRLPRPRPRPPGSPRP | -0.123 |
| RRIRWRPPRLPRPRPRPNQGPRP | 0.0374 |
| RRIRLRPPRLPRPRPRPYRRPRP | 0.0203 |
| RRIRYRPPRLPRPRPRPLLKPRP | -0.634 |
| RRIRLRPPRLPRPRPRPMFTPRP | -0.0806 |
| RRIRRRPPRLPRPRPRPMTGPRP | 0.0638 |
| RRIRCRPPRLPRPRPRPAPMPRP | 0.308 |
| RRIRPRPPRLPRPRPRPGGIPRP | 0.114 |
| RRIRARPPRLPRPRPRPGHDPRP | 0.215 |
| RRIRCRPPRLPRPRPRPRWRPRP | 0.442 |

| Sequence | shrunken log2 fold change |
| --- | --- |
| RRIRSRPPRLPRPRPRPGWFPRP | 0.44 |
| RRIRERPPRLPRPRPRPWNKPRP | -0.286 |
| RRIRNRPPRLPRPRPRPKYQPRP | -0.0997 |
| RRIRSRPPRLPRPRPRPMMRPRP | 0.836 |
| RRIRDRPPRLPRPRPRPVIWPRP | 0.0861 |
| RRIRTRPPRLPRPRPRPCRGPRP | -0.398 |
| RRIRKRPPRLPRPRPRPSMPPRP | 0.0159 |
| RRIRCRPPRLPRPRPRPEVAPRP | 0.293 |
| RRIRKRPPRLPRPRPRPNDPPRP | -0.0515 |
| RRIRFRPPRLPRPRPRPAGCPRP | 0.229 |
| RRIRFRPPRLPRPRPRPLEHPRP | 0.0403 |
| RRIRCRPPRLPRPRPRPLSQPRP | 0.0133 |
| RRIRLRPPRLPRPRPRPKDFPRP | 0.0642 |
| RRIRMRPPRLPRPRPRPPWQPRP | 0.763 |
| RRIRYRPPRLPRPRPRPLDDPRP | -0.115 |
| RRIRMRPPRLPRPRPRPWAHPRP | -0.091 |
| RRIRGRPPRLPRPRPRPCFEPRP | 0.629 |
| RRIRKRPPRLPRPRPRPHGPPRP | 0.0129 |
| RRIRPRPPRLPRPRPRPVWPPRP | 0.341 |
| RRIRKRPPRLPRPRPRPEAMPRP | 0.0888 |
| RRIRYRPPRLPRPRPRPGEPPRP | -0.0235 |
| RRIRVRPPRLPRPRPRPEESPRP | 0.246 |
| RRIRRRPPRLPRPRPRPLFRPRP | 0.109 |
| RRIRCRPPRLPRPRPRPWILPRP | -0.357 |
| RRIRMRPPRLPRPRPRPFVFPRP | 0.0629 |
